In publication PMC5367461 (Biochemical and biophysical research communications, 2017):

T1: PDZ-RhoGEF PDZ domain (residues 41-123), human (human, UniProt O15085 41-123)
T1 sequence (looked up): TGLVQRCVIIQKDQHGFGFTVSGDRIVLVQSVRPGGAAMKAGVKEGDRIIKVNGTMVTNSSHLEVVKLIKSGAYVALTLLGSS

B1: rPDZ-CXCR2 fusion protein: human PDZ-RhoGEF PDZ (residues 41-123) with the C-terminal extension TSTTL of human CXCR2 (other)
chain: TGLVQRCVIIQKDQHGFGFTVSGDRIVLVQSVRPGGAAMKAGVKEGDRIIKVNGTMVTNSSHLEVVKLIKSGAYVALTLLGSSTSTTL

Legend:
[1] = target: T1, PDZ-RhoGEF PDZ domain (residues …); test: crystal structure
[2] = target: the molecule itself; test: SDS-PAGE with/without BME

Binder | binding result [1] | stoichiometry N [2]
TSTTL [CXCR2 C-terminal PDZ binding motif TSTTL (residues 356-360 of human CXCR2)] | binds | 
B1 |  | 2
